Test results as given in publication doi:10.64898/2025.12.08.692925.

Assays:
Test in all cases: split reporter
[1] = biological target: Tim23 mutant M1 fused to short YFP (S. cerevisiae) (UniProt P32897)
[2] = biological target: Tim23 mutant M2 fused to short YFP (S. cerevisiae) (UniProt P32897)
[3] = biological target: Tim23 mutant M4 fused to short YFP (S. cerevisiae) (UniProt P32897)

B1: Sfc1 fused to long YFP (natural protein)
chain: MSQKKKASHPAINLMAGGTAGLFEALCCHPLDTIKVRMQIYRRVAGIEHVKPPGFIKTGRTIYQKEGFLALYKGLGAVVIGIIPKMAIRFSSYEFYRTLLVNKESGIVSTGNTFVAGVGAGITEAVLVVNPMEVVKIRLQAQHLTPSEPNAGPKYNNAIHAAYTIVKEEGVSALYRGVSLTAARQATNQGANFTVYSKLKEFLQNYHQMDVLPSWETSCIGLISGAIGPFSNAPLDTIKTRLQKDKSISLEKQSGMKKIITIGAQLLKEEGFRALYKGITPRVMRVAPGQAVTFTVYEYVREHLENLGIFKKNDTPKPKPLK
Which percent of fluorescent cells [1] does the source give for B1 here?
Its percent of fluorescent cells is 4%.

What about the percent of fluorescent cells [2] of the same binder?
Its percent of fluorescent cells is 7%.

What about the percent of fluorescent cells [3] of the same binder?
The percent of fluorescent cells was 9%.
